Target: T1, VEGF (UniProt P15692)
T1 chain: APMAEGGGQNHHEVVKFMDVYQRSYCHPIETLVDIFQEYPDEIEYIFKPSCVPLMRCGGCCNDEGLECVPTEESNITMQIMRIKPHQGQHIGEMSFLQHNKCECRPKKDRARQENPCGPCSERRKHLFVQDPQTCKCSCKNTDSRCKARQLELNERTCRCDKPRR
Assay: SPR

B1: scFv1 (antibody)
chain: DIQLTQSPSSLSASVGDRVTITCSASQDISNYLNWYQQKPGKAPKVLIYFTSSLHSGVPSRFSGSGSGTDFTLTISSLQPEDEATYYCQQYSTVPWTFGQGTKVEIKGGGSGGGSGGGSGGGSGGGSEVQLVESGGGLVQPGGSLRLSCAASGYDFTHYGMNWVRQAPGKGLEWVGWINTYTGEPTYAADFKRRFTFSLDTSKSTAYLQMNSLRAEDTAVYYCAKYPYYYGTSHWYFDVWGQGTLVTVSS
Kd: 0.0205 nM

B2: scFv3 (antibody)
chain: DIQLTQSPSSLMASVGDRVTITCSASQDISNYLNWYQQKPGKAPKVLIYFTSSLHSGVPSRFSGSGSGTDFTLTISSLQPEDEATYYCQQYSTVPWTFGQGTKVEIKGGGSGGGSGGGSGGGSGGGSEVQLVESGGGLVQPGGSLRLSCAASGYDFTHYGMNWVRQAPGKGLEWVGWINTYTGEPTYAADFKRRFTFSLDTSKSTAYLQMNSLRAEDTAVYYCAKYPYYYGTSHWYFDVWGQGTLVTVSS
Kd: 0.0236 nM

Source: patent US20260317411 (published 2026)
